Biological target: T1, human serum albumin (HSA) (human, UniProt P02768 25-609)
T1 construct: Coated on ELISA plates or immunotubes; also called HuSA
Assay: phage ELISA on coated HSA

T1 sequence (P02768 25-609 limits assumed): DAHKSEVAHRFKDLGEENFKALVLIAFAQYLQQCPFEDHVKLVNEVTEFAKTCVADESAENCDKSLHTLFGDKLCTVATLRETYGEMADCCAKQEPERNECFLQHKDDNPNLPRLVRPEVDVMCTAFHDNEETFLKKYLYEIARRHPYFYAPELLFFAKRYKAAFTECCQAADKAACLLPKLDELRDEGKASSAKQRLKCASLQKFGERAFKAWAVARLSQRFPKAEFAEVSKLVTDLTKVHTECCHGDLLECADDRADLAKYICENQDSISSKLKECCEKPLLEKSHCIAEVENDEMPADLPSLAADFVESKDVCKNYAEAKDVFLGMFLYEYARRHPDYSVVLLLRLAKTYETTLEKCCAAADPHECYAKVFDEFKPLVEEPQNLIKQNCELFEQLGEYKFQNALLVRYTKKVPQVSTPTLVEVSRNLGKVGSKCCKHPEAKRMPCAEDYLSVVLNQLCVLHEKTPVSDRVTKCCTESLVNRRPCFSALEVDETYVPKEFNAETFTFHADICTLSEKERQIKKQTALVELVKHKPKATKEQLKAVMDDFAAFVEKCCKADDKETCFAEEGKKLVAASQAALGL

B1: modified igNAR peptide clone B10 (VNAR)
VNAR: RVDQTPRIATKETGESLTINCVLRDTACALDSTNWYRTKLGSTKEQTISIGGRYSETADEGSNPASLTIRDLRVEDSGTYKCKAAITPFDNWYECLGTRAEGAGTVLTVK
binding result: binds

B2: representative full igNAR clone of SEQ ID NO: 8 (VNAR)
VNAR: RVDQTPRIATKETGESLTINCVLRDTACALDSTNWYRTKLGSTKEQTISIGGRYSETVDEGSNSASLTIRDLRVEDSGTYKCKAAITPFDNWYECLGTRAEGAGTVLTVK
binding result: binds

Reference: patent US20140154241A1 (CYCLOGENIX, published 2014)
